Test results as given in paper PMC5928908 (Theranostics, 2018).

Target: full-length GST-PRMT5 (UniProt O14744 1-637)
Assay: pull-down

Chain of full-length GST-PRMT5 (O14744 whole entry): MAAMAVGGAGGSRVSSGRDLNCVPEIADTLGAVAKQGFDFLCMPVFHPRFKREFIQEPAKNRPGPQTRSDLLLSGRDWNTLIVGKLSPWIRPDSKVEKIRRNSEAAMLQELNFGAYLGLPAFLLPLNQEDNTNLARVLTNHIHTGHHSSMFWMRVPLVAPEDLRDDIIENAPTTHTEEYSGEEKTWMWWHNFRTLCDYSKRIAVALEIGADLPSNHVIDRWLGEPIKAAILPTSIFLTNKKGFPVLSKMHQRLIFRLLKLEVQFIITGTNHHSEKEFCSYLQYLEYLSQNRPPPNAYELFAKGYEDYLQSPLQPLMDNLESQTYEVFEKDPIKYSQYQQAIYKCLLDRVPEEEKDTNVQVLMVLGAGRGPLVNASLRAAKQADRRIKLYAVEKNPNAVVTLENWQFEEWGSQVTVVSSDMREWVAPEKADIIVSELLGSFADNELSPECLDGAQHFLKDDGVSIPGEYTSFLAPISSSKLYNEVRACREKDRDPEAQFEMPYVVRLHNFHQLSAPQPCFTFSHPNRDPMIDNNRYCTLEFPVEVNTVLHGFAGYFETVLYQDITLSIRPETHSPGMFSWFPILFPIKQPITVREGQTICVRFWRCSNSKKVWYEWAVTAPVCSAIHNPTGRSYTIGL

B1: full-length His-CAPG (natural protein)
chain: MYTAIPQSGSPFPGSVQDPGLHVWRVEKLKPVPVAQENQGVFFSGDSYLVLHNGPEEVSHLHLWIGQQSSRDEQGACAVLAVHLNTLLGERPVQHREVQGNESDLFMSYFPRGLKYQEGGVESAFHKTSTGAPAAIKKLYQVKGKKNIRATERALNWDSFNTGDCFILDLGQNIFAWCGGKSNILERNKARDLALAIRDSERQGKAQVEIVTDGEEPAEMIQVLGPKPALKEGNPEEDLTADKANAQAAALYKVSDATGQMNLTKVADSSPFALELLISDDCFVLDNGLCGKIYIWKGRKANEKERQAALQVAEGFISRMQYAPNTQVEILPQGHESPIFKQFFKDWK
**Q.** Does B1 bind?
**A.** binds
